How the values were obtained:
[1] = Retinal EPO levels by ELISA in mouse microbead occlusion model (MOM) of glaucoma; design: species or system C57/B16 mice; conditions: intravitreal injection, 6 weeks post-MP injection, ELISA of retinal tissue ex vivo
Protocol: (§1) Poly(propylene sulfide-co-ethylene sulfide) (PPSES) was synthesized using ring opening polymerization with an equimolar feed of each monomer. EPO-loaded MPs were formulated by first producing EPO-loaded dextran nanoparticles and loading these into PPSES MPs. The S/O/W technique was used to load EPO. To establish the microbead occlusion model (MOM, FIG. 10) of glaucoma, polystyrene beads were injected into the anterior chamber of C57/B16 mice. Saline-injected mice served as healthy controls. After 1 week, phosphate buffered saline (PBS)-free EPO, blank MPs, or EPO-loaded MPs were injected intravitreally. At 6 weeks post-MP injection, electroretinograms (ERGs) and visual evoked potential (VEP) tests were performed intravitally. Retinal tissue was evaluated ex vivo for EPO and ROS levels using ELISA and Amplex Red dye, respectively.

[2] = tested on: retinal reactive oxygen species (ROS); test: Retinal ROS levels by Amplex Red dye in mouse MOM model of glaucoma; design: species or system C57/B16 mice; conditions: intravitreal injection, 6 weeks post-MP injection, ex vivo
Protocol: as §1

[3] = free protein, intravitreal; cited from earlier work

Erythropoietin [EPO]
retinal EPO levels (sustained EPO release) [1]: not different from PBS animals
retinal ROS levels [2]: Both groups outperformed free EPO
half-life intravitreally [3]: ~72 h
